Legend:
Format in all cases: biochemical
3′-amino-ddCTP = assay: Kinetic analysis of 3′-amino-ddCTP incorporation (primer extension, PAGE); details: FIG. 3
Source text: (§1) An IR800-dye-labeled synthetic primer 5′-AGTGAATTCGAGCTCGGTACCCGGGGATCCTCTAGAGTCGACCTGCAGGC-3′ (SEQ ID NO:18) was annealed to a template 3′-TCACTTAAGCTCGAGCCATGGGCCCCTAGGAGATCTCAGCTGGACGTCCGGATCCTATACTAATCCC-5′ (SEQ ID NO:19) and used as a substrate. Reaction aliquots were sampled at 10, 30, 60, 120 and 300 seconds and analyzed by 20% denaturing PAGE. Unextended primer (0) and fully extended product (+1) are indicated.
Furthermore, the same assay was used to measure 3′-amino-ddCTP incorporation by 9° N exo-L408S/Y409A/P410V (FIG. 3) and to measure rates of incorporation (FIG. 4). Examples of mutants that increased modified nucleotide incorporation by at least two-fold were: […]

3′-azido-ddCTP = assay: Kinetic analysis of 3′-azido-ddCTP incorporation (primer extension, PAGE)
Protocol: An IR800-dye-labeled synthetic primer 5′-AGTGAATTCGAGCTCGGTACCCGGGGATCCTCTAGAGTCGACCTGCAGGC-3′ (SEQ ID NO:18) was annealed to a template 3′-TCACTTAAGCTCGAGCCATGGGCCCCTAGGAGATCTCAGCTGGACGTCCGGATCCTATACTAATCCC-5′ (SEQ ID NO:19) and used as a substrate to measure rates of 3′-azido-ddCTP incorporation. Incorporation of varying concentrations of 3′-azido-ddCTP (100, 50, 25, 12.5, 6.25, and 3.125 μM) by 9° N exo-L408S/Y409A/P410V DNA polymerase was monitored over a three-minute time course. Reaction aliquots were sampled at 10, 20, 30, 45, 60, and 180 seconds and analyzed by 20% denaturing PAGE. “S” is the unextended primer and “P” is the fully extended product corresponding to 3′-azido-ddCMP addition at the +1 position.
as §1
Linear rates of 3′-azido-ddCTP incorporation derived from these curves are 100 μM: 0.05 s^−1; 50 μM: 0.05 s^−1; 25 μM: 0.05s^−1; 12.5 μM: 0.03s^−1; 6.25 μM: 0.03s^−1; 3.125 μM: 0.02 s^−1.
An IR800-dye-labeled synthetic primer 5′-AGTGAATTCGAGCTCGGTACCCGGGGATCCTCTAGAGTCGACCTGCAGGC-3′ (SEQ ID NO:18 was annealed to a template 3′-TCACTTAAGCTCGAGCCATGGGCCCCTAGGAGATCTCAGCTGGACGTCCGGATCCTATACTAATCCC-5′ (SEQ ID NO:19) and used as a substrate to measure rates of 3′-azido-ddCTP incorporation over a three-minute time course. The results are shown in FIG. 2. Reaction aliquots were sampled at 10, 20, 30, 45, 60, and 180 seconds and analyzed by 20% denaturing PAGE where “S” indicates the unextended primer and “P” the fully extended product corresponding to 3′-azido-ddCMP addition at the +1 position(B). 9° N exo-L408S/Y409A/P410V incorporation of varying concentrations of 3′-azido-ddCTP was measured over a three-minute time course.

modified nucleotide = assay: Screen of DNA polymerase mutants for modified nucleotide incorporation
Method in brief: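 Chain-terminator titration (Gardner and Jack 2002) compared terminator amounts giving equal product-size spectra, product size shrinking as terminator incorporation rises. Applied to purified 9° N exo- polymerase library mutants with 3′-azido-ddCTP and 3′-amino-ddCTP; incorporation rates also measured.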

B1: 9° N exo-L408S/Y409A/P410V: 9° N DNA polymerase mutant (Therminator III™, NEB) (protein, UniProt Q56366 1-775, looked up, variant D141A E143A L408S Y409A P410V)
DNA polymerase: MILDTDYITENGKPVIRVFKKENGEFKIEYDRTFEPYFYALLKDDSAIEDVKKVTAKRHGTVVKVKRAEKVQKKFLGRPIEVWKLYFNHPQDVPAIRDRIRAHPAVVDIYEYDIPFAKRYLIDKGLIPMEGDEELTMLAFAIATLYHEGEEFGTGPILMISYADGSEARVITWKKIDLPYVDVVSTEKEMIKRFLRVVREKDPDVLITYNGDNFDFAYLKKRCEELGIKFTLGRDGSEPKIQRMGDRFAVEVKGRIHFDLYPVIRRTINLPTYTLEAVYEAVFGKPKEKVYAEEIAQAWESGEGLERVARYSMEDAKVTYELGREFFPMEAQLSRLIGQSLWDVSRSSTGNLVEWFLLRKAYKRNELAPNKPDERELARRRGGYAGGYVKEPERGLWDNIVYLDFRSSAVSIIITHNVSPDTLNREGCKEYDVAPEVGHKFCKDFPGFIPSLLGDLLEERQKIKRKMKATVDPLEKKLLDYRQRAIKILANSFYGYYGYAKARWYCKECAESVTAWGREYIEMVIRELEEKFGFKVLYADTDGLHATIPGADAETVKKKAKEFLKYINPKLPGLLELEYEGFYVRGFFVTKKKYAVIDEEGKITTRGLEIVRRDWSEIAKETQARVLEAILKHGDVEEAVRIVKEVTEKLSKYEVPPEKLVIHEQITRDLRDYKATGPHVAVAKRLAARGVKIRPGTVISYIVLKGSGRIGDRAIPADEFDPTKHRYDAEYYIENQVLPAVERILKAFGYRKEDLRYQKTKQVGLGAWLKVKGKK
concentration of modified nucleotide sufficient for efficient incorporation (3′-amino-ddCTP): 10 µM | linear rate of 3′-azido-ddCTP incorporation (3′-azido-ddCTP; 3.125 μM 3′-azido-ddCTP): 0.02 s⁻¹ | linear rate of 3′-azido-ddCTP incorporation (3′-azido-ddCTP; 6.25 μM 3′-azido-ddCTP): 0.03 s⁻¹ | linear rate of 3′-azido-ddCTP incorporation (3′-azido-ddCTP; 12.5 μM 3′-azido-ddCTP): 0.03 s⁻¹ | linear rate of 3′-azido-ddCTP incorporation (3′-azido-ddCTP; 25 μM 3′-azido-ddCTP): 0.05 s⁻¹ | linear rate of 3′-azido-ddCTP incorporation (3′-azido-ddCTP; 50 μM 3′-azido-ddCTP): 0.05 s⁻¹ | linear rate of 3′-azido-ddCTP incorporation (3′-azido-ddCTP; 100 μM 3′-azido-ddCTP): 0.05 s⁻¹ | concentration of modified nucleotide sufficient for efficient incorporation (3′-azido-ddCTP; 3′-azido-ddCTP, FIG. 3): 10 µM | 3′-azido-ddCTP incorporation (3′-azido-ddCTP; after three minutes): ~100% | increase of modified nucleotide incorporation (modified nucleotide): at least two-fold

From US20110045489A1, “Polymerases for Incorporating Modified Nucleotides” (NEW ENGLAND BIOLABS, INC., priority 2008, published 2011)
